Laboratory results as given in patent US20190309094A1 (Y BIOLOGICS, published 2019).

What was measured:
PD-L1 expressed on cells = PD-L1 expressed on cells (UniProt Q9NZQ7 19-290, limits assumed); test: cell-based or functional assay
CD3 (Sino Biological) = test: ELISA on CD3, curve fit
Protocol: Next day, plate was washed once with 200 μl of PBST, and then a surface blocking was performed at room temperature with 5% skim milk for 1-2 hours. […] Each well was then washed three times with 200 μl of PB ST to remove unbound samples. Horseradish peroxidase (HRP)-conjugated anti-human IgG (Fab specific) antibodies (Sigma, USA) were added to wells at a ratio of 1:1000 for a reaction at room temperature. After three times of washing with 200 ul of PBST, a color reaction of HRP was induced using TMB solution (GEhealthcare, USA) in a volume of 100 μl/well. The reaction was terminated by using a stop solution (2.5 M H₂SO₄, 100 μl/well). A spectrophotometer was used to measure the absorbance at a wavelength of A450 to calculate the binding affinity.

Chain of CD3 (Sino Biological) (P07766 23-126, chain 1 of 2): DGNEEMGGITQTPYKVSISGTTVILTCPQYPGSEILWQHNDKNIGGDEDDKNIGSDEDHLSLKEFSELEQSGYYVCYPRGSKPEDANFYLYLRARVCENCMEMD
Chain of CD3 (Sino Biological) (P04234 22-105, chain 2 of 2, further chain): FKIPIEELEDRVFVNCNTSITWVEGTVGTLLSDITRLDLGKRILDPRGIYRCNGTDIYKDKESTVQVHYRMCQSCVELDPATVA
Chain of PD-L1 expressed on cells (Q9NZQ7 19-290 limits assumed): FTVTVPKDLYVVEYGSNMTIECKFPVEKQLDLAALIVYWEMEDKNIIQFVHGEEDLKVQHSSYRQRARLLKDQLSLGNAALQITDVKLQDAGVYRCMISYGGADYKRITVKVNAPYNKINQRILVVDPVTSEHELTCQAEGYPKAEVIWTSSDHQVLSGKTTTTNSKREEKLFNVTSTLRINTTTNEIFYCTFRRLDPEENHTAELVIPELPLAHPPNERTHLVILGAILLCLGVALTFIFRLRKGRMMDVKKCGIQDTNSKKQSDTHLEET

B1: ACE-05-VL2 (other)
heavy: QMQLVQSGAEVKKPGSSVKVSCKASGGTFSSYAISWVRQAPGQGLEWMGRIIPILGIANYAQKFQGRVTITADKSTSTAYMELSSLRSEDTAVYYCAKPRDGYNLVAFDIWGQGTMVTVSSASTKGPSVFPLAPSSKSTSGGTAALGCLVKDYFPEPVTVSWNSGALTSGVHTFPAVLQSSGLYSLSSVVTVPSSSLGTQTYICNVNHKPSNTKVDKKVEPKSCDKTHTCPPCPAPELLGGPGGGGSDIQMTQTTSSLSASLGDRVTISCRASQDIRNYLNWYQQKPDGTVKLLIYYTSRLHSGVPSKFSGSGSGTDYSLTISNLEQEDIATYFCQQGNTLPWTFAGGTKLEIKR
light: QLVLTQPPSVSGAPGQRVTISCTGSSSNIGAGYDVHWYQQLPGAAPKLLIYGDINRPSGVPDRFSGSKSGISASLAITGLQAEDEADYYCQSYDSSLSGGVFGGGTKLTVLRTVAAPSVFIFPPSDEQLKSGTASVVCLLNNFYPREAKVQWKVDNALQSGNSQESVTEQDSKDSTYSLSSTLTLSKADYEKHKVYACEVTHQGLSSPVTKSFNRGEC
EC50 (read off the curve), PD-1/PD-L1 Blockade Bioassay (PD-L1 expressed on cells): ~0.09 µg/mL

B2: ACE-05 (bispecific antibody)
heavy 1: not shown
heavy 2: not shown
light: QLVLTQPPSVSGAPGQRVTISCTGSSSNIGAGYDVHWYQQLPGAAPKLLIYGDINRPSGVPDRFSGSKSGISASLAITGLQAEDEADYYCQSYDSSLSGGVFGGGTKLTVLRTVAAPSVFIFPPSDEQLKSGTASVVCLLNNFYPREAKVQWKVDNALQSGNSQESVTEQDSKDSTYSLSSTLTLSKADYEKHKVYACEVTHQGLSSPVTKSFNRGEC
notes: also called ALiCE; ACE-05-VH + ACE-05-VL + ACE-05-LC
Bmax (CD3 (Sino Biological)): 3.97 OD 450 nm

B3: ACE-09 (bispecific antibody)
heavy 1: not shown
heavy 2: not shown
light: QLVLTQPPSVSGAPGQRVTISCTGSSSNIGAGYDVHWYQQLPGAAPKLLIYGDINRPSGVPDRFSGSKSGISASLAITGLQAEDEADYYCQSYDSSLSGGVFGGGTKLTVLRSVAAPSVFIFPPSDEQLKSGTASVVCLLNNFYPREAKVQWKVDNALQSGNSQESVTEQDSKDSTYSLSSTLTLSKADYEKHKVYACEVTHQGLSSPVTKSFNRGEC
notes: also called ACE-09-VH + ACE-09-VL + ACE-09-LC
Bmax (CD3 (Sino Biological)): 4.04 OD 450 nm

B4: UCHT1 (antibody, V domains shown)
VH: EVQLQQSGPELVKPGPSMKISCKASGYSFTGYTMNWVKQSHGKNLEWMGLINPYKGVSTYNQKFKDKATLTVDKSSSTAYMELLSLTSEDSAVYYCARSGYYGDSDWYFDVWGQGTTLTVFS
VL: DIQMTQTTSSLSASLGDRVTISCRASQDIRNYLNWYQQKPDGTVKLLIYYTSRLHSGVPSKFSGSGSGTDYSLTISNLEQEDIATYFCQQGNTLPWTFAGGTKLEIKR
notes: A bought antibody (BioLegend); also called parental anti-CD3 antibody
Bmax (CD3 (Sino Biological)): 3.67 OD 450 nm
